T1: MBP-CTCF(F4-F8) (Homo sapiens, UniProt P49711 351-489)
T1 sequence: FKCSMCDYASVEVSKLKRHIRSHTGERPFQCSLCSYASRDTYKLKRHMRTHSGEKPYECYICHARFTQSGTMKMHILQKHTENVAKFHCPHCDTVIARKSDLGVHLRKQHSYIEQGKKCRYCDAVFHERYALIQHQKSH

B1: KPNA7 exon 7 CTCF motif c.1030G>C (dsDNA)
DNA 1: ATCCAGAAGCAGGCAG
DNA 2: CTGCCTGCTTCTGGAT
B2: KPNA7 exon 7 CTCF motif WT (dsDNA)
DNA 1: ATCCAGAAGGAGGCAG
DNA 2: CTGCCTCCTTCTGGAT

Tests used:
MBP-CTCF(F4-F8) [1] = target: T1, MBP-CTCF(F4-F8); assay: fluorescence anisotropy; 100 uM ZnCl2; apparent KD, fit bounds fixed to WT; above top protein concentration 34.5 uM; 20 mM Tris pH 8, 200 mM KCl, 100 uM ZnCl2, 1 mM DTT, 25 C; 10 nM dsDNA, MBP-CTCF up to 34.5 uM; conditions: protein: recombinant; tags: MBP (N-terminal, pMAL-c2g); label: 6-FAM at 5' end of reverse strand; blunt
MBP-CTCF(F4-F8) [2] = target: T1, MBP-CTCF(F4-F8); assay: fluorescence anisotropy; 100 uM ZnCl2; apparent KD; 20 mM Tris pH 8, 200 mM KCl, 100 uM ZnCl2, 1 mM DTT, 25 C; 10 nM dsDNA, MBP-CTCF up to 34.5 uM; conditions: protein: recombinant; tags: MBP (N-terminal, pMAL-c2g); label: 6-FAM at 5' end of reverse strand; blunt

| Binder | Kd (MBP-CTCF(F4-F8) [1]) [µM] | Kd (MBP-CTCF(F4-F8) [2]) [µM] |
| --- | --- | --- |
| B1 | 76 ± 16.2 |  |
| B2 |  | 1.76 ± 0.084 |

— PMC7076015, “An epilepsy-associated mutation in the nuclear import receptor KPNA7 reduces nuclear localization signal binding”
